Measurements as given in article PMC6327041, “Histone H3 binding to the PHD1 domain of histone demethylase KDM5A enables active site remodeling” (Nature Communications, 2019).

Columns and labels:
[1] = target: C-terminally 5-carboxyfluorescein (5-FAM) conjugated Ac-H3K4me3 31mer peptide; experiment: fluorescence polarisation; direct FP: Ac-H3K4me3-fluorescein 31mer with varying KDM5A_(1-797); 400 µM MnCl2 and 400 µM N-OG; no effector peptide; Kd read at 1 min (the signal decreases over time)
[2] = target: C-terminally 5-carboxyfluorescein (5-FAM) conjugated Ac-H3K4me3 31mer peptide; experiment: fluorescence polarisation; direct FP: Ac-H3K4me3-fluorescein 31mer with varying KDM5A_(1-797); 400 µM MnCl2 and 400 µM N-OG; with 350 µM H3 10mer effector peptide; Kd read at 1 min (the signal is stable for at least 1 h)
[3] = substrate: C[C@H](N)C(=O)N[C@@H](CCCNC(=N)N)C(=O)N[C@H](C(=O)N[C@@H](CCCC[N+](C)(C)C)C(=O)N[C@@H](CCC(N)=O)C(=O)N[C@H](C(=O)N[C@@H](C)C(=O)N[C@@H](CCCNC(=N)N)C(=O)N[C@@H](CCCCN)C(=O)N[C@@H](CO)C(=O)O)[C@@H](C)O)[C@@H](C)O; experiment: KDM5A demethylation, FDH-coupled formaldehyde release assay; format: biochemical, human; settings: other: H3K4me3 10mer as substrate (Figure S3, response to reviewers)
Procedure: WT KDM5A1-797 was expressed in Sf21 cells following Invitrogen Bac-to-Bac baculovirus expression system protocol. KDM5A1-797 was cloned into a pFASTBAC HTA vector. Purified bacmid was transfected in Sf21 cells. Approximately 0.8 × 10^−5 cells per well of a six-well dish were allowed to attach in 2 ml of SF-900 II SFM media containing 50 U ml^−1 penicillin and 50 μg ml^−1 streptomycin. While cells attached, 8 μl of Cellfectin II reagent (Invitrogen) in 100 μl of unsupplemented Grace’s medium was mixed with ~2–5 μg of bacmid in 100 μl of unsupplemented Grace’s medium and incubated for 15–30 min at 25 °C. Once cells were attached, media was removed and cells were washed with 2 ml of Grace’s unsupplemented media. The bacmid DNA:Cellfectin mixture was then diluted to 1 ml with Grace’s unsupplemented media and added to the well. Cells with bacmid:Cellfectin II mixture were incubated for 5 h at 27 °C. After 5 h of incubation, bacmid:Cellfectin mixture was removed and replaced with 2 ml of SF-900 II SFM 50 U ml^−1 penicillin and 50 μg ml^−1 streptomycin. […]
Reactions were performed in 50 mM HEPES, 50 mM KCl, 1 mM α-ketoglutarate, 50 μM Fe(NH4)2(SO4)2, 2 mM ascorbic acid, 2 mM NAD^+ and 0.05 U FDH (Sigma) at pH 7.5 at room temperature. […] An NADH standard curve was used to convert fluorescence to concentration of product formed. […] Michaelis–Menten parameters were determined using Graphpad Prism.

Binder	Kd [1] [µM]	Kd [2] [µM]	Km [3] [µM]
KDM5A_(1-797) (enzyme) MAGVGPGGYAAEFVPPPECPVFEPSWEEFTDPLSFIGRIRPLAEKTGICKIRPPKDWQPPFACEVKSFRFTPRVQRLNELEAMTRVRLDFLDQLAKFWELQGSTLKIPVVERKILDLYALSKIVASKGGFEMVTKEKKWSKVGSRLGYLPGKGTGSLLKSHYERILYPYELFQSGVSLMGVQMPNLDLKEKVEPEVLSTDTQTSPEPGTRMNILPKRTRRVKTQSESGDVSRNTELKKLQIFGAGPKVVGLAMGTKDKEDEVTRRRKVTNRSDAFNMQMRQRKGTLSVNFVDLYVCMFCGRGNNEDKLLLCDGCDDSYHTFCLIPPLPDVPKGDWRCPKCVAEECSKPREAFGFEQAVREYTLQSFGEMADNFKSDYFNMPVHMVPTELVEKEFWRLVSSIEEDVIVEYGADISSKDFGSGFPVKDGRRKILPEEEEYALSGWNLNNMPVLEQSVLAHINVDISGMKVPWLYVGMCFSSFCWHIEDHWSYSINYLHWGEPKTWYGVPSHAAEQLEEVMRELAPELFESQPDLLHQLVTIMNPNVLMEHGVPVYRTNQCAGEFVVTFPRAYHSGFNQGYNFAEAVNFCTADWLPIGRQCVNHYRRLRRHCVFSHEELIFKMAADPECLDVGLAAMVCKELTLMTEEETRLRESVVQMGVLMSEEEVFELVPDDERQCSACRTTCFLSALTCSCNPERLVCLYHPTDLCPCPMQKKCLRYRYPLEDLPSLLYGVKVRAQSYDTWVSRVTEALSANFNHKKDLIELRVMLEDAEDRKYPENDLFRKLRDAVKEAETCASV	56.9	62.5	
KDM5A1-797 (Homo sapiens) (protein, KDM5A1-797 was cloned into a pFASTBAC HTA vector; His (N, cleaved yes); made in house; host or cells: Sf21 insect cells (baculovirus)) MAGVGPGGYAAEFVPPPECPVFEPSWEEFTDPLSFIGRIRPLAEKTGICKIRPPKDWQPPFACEVKSFRFTPRVQRLNELEAMTRVRLDFLDQLAKFWELQGSTLKIPVVERKILDLYALSKIVASKGGFEMVTKEKKWSKVGSRLGYLPGKGTGSLLKSHYERILYPYELFQSGVSLMGVQMPNLDLKEKVEPEVLSTDTQTSPEPGTRMNILPKRTRRVKTQSESGDVSRNTELKKLQIFGAGPKVVGLAMGTKDKEDEVTRRRKVTNRSDAFNMQMRQRKGTLSVNFVDLYVCMFCGRGNNEDKLLLCDGCDDSYHTFCLIPPLPDVPKGDWRCPKCVAEECSKPREAFGFEQAVREYTLQSFGEMADNFKSDYFNMPVHMVPTELVEKEFWRLVSSIEEDVIVEYGADISSKDFGSGFPVKDGRRKILPEEEEYALSGWNLNNMPVLEQSVLAHINVDISGMKVPWLYVGMCFSSFCWHIEDHWSYSINYLHWGEPKTWYGVPSHAAEQLEEVMRELAPELFESQPDLLHQLVTIMNPNVLMEHGVPVYRTNQCAGEFVVTFPRAYHSGFNQGYNFAEAVNFCTADWLPIGRQCVNHYRRLRRHCVFSHEELIFKMAADPECLDVGLAAMVCKELTLMTEEETRLRESVVQMGVLMSEEEVFELVPDDERQCSACRTTCFLSALTCSCNPERLVCLYHPTDLCPCPMQKKCLRYRYPLEDLPSLLYGVKVRAQSYDTWVSRVTEALSANFNHKKDLIELRVMLEDAEDRKYPENDLFRKLRDAVKEAETCASV			770
